Test results: article PMC7705670, “Structural and functional characterization of M. tuberculosis sedoheptulose- 7-phosphate isomerase, a critical enzyme involved in lipopolysaccharide biosynthetic pathway” (Scientific Reports, 2020)

Assays:
Experiment in all cases: SEC
[1] = target: MtbGmhA Q173A mutant (M. tuberculosis) (UniProt P9WGG1)
[2] = target: MtbGmhA S123A mutant (M. tuberculosis) (UniProt P9WGG1)
[3] = target: MtbGmhA S126A mutant (M. tuberculosis) (UniProt P9WGG1)
[4] = target: MtbGmhA T122A mutant (M. tuberculosis) (UniProt P9WGG1)
[5] = target: the molecule itself

**Q.** “MtbGmhA Q173A mutant (from UniProt P9WGG1 1-196) (enzyme)” was tested. Which stoichiometry N [1] did it give?
**A.** The stoichiometry N was 4.

**Q.** “MtbGmhA S123A mutant (from UniProt P9WGG1 1-196) (enzyme)” was tested. Which stoichiometry N [2] did it give?
**A.** The stoichiometry N was 4.

**Q.** “MtbGmhA S126A mutant (from UniProt P9WGG1 1-196) (enzyme)” was tested. Which stoichiometry N [3] did it give?
**A.** The stoichiometry N was 4.

**Q.** How did the stoichiometry N [4] turn out when “MtbGmhA T122A mutant (from UniProt P9WGG1 1-196) (enzyme)” was run?
**A.** Its stoichiometry N is 4.

B1: MtbGmhA N53G mutant (enzyme)
chain: MCTARTAEEIFVETIAVKTRILNDRVLLEAARAIGDRLIAGYRAGARVFMCGGGGSAADAQHFAAELTGHLIFDRPPLGAEALHANSSHLTAVANDYDYDTVFARALEGSARPGDTLFAISTSGNSMSVLRAAKTARELGVTVVAMTGESGGQLAEFADFLINVPSRDTGRIQESHIVFIHAISEHVEHALFAPRQ
notes: not shown: His6, N-terminal, kept
**Q.** B1 was tested. Which “stoichiometry N” value [5] did it give?
**A.** The value was 4.

B2: MtbGmhA S121G mutant (enzyme)
chain: MCTARTAEEIFVETIAVKTRILNDRVLLEAARAIGDRLIAGYRAGARVFMCGNGGSAADAQHFAAELTGHLIFDRPPLGAEALHANSSHLTAVANDYDYDTVFARALEGSARPGDTLFAIGTSGNSMSVLRAAKTARELGVTVVAMTGESGGQLAEFADFLINVPSRDTGRIQESHIVFIHAISEHVEHALFAPRQ
notes: as for B1
**Q.** For B2, which “stoichiometry N” value [5] is on record?
**A.** The value was 4.
